Literature values as cited in paper PMC9456110.
Where two headings read alike, the source gives them in different places.

How the values were obtained:
[1] = molecular target: Calmodulin (Homo sapiens) (UniProt P0DP23)
[2] = molecular target: Calmodulin (Homo sapiens) (UniProt P0DP23); remark: listed apart in the source
[3] = molecular target: Calmodulin (Homo sapiens) (UniProt P0DP23); remark: listed apart in the source
PIP (Homo sapiens) = PIP (Homo sapiens) (UniProt P12273)
[4] = molecular target: Calmodulin (Homo sapiens) (UniProt P0DP23); remark: listed apart in the source
[5] = molecular target: Calmodulin (Homo sapiens) (UniProt P0DP23); remark: listed apart in the source

Chain of UniProt P12273 (P12273 29-146): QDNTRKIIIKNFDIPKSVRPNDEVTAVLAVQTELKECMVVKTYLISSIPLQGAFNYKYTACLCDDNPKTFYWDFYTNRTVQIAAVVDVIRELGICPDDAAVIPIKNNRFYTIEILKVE

Q: Which Kd [1] does the source give for AQP4 (from UniProt P55087) here?
A: 29 µM

Q: With AQP4 C-terminus (from UniProt P55087) as the substance, how does the Kd [2] read?
A: 3.6 µM

Q: With AQP4 N-terminus (from UniProt P55087) as the substance, how does the Kd [3] read?
A: 3.4 µM

Q: Which Kd (PIP (Homo sapiens)) does the source give for AQP5 C-terminus (from UniProt P55064) here?
A: 570 nM

Q: For AQP6 N-terminus (from UniProt Q8C4A0), which Kd [4] is on record?
A: 790 nM

Q: For AQP6 N-terminus (from UniProt Q13520), which Kd [5] is on record?
A: 1780 nM
